# Measurements as given in the nanobody polyreactivity screen of Harvey et al. (2022).
# Assay: yeast display, Sf9 membrane polyspecificity reagent, FACS + sequencing; frameworks hold sequencing errors
# Method in brief: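 Galactose induction of a Saccharomyces cerevisiae BJ5465 synthetic nanobody display library ran 36–48 hours. The cells were then stained for 1 hour at 4 °C with 10% biotinylated, detergent-solubilized Sf9 membrane reagent, pulled down on streptavidin microbeads and FACS-sorted into low and high (top ~1%) gates on expression and reagent-binding fluorescence. Labels for polyreactivity follow the gate of origin.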
row,Sequence,polyreactivity (PSR sort gate)
1,QVQLVESGGGLVQAGGSLRLSCAASGSIFFSYAMGWYRQAPGKERELVAAISSGGSTYYADSVKGRFTISRDNAKNTVYLQMNSLKPEDTAVYYCAARGYRLVPVDFYYWGQGTQVTVSS,low polyreactivity
2,QVQLVESGGGLVQAGGSLRLSCAASGSIFFSYAMGWYRQAPGKERELVAAISTSGGNTYYADSVKGRFTISRDNAKNTVYVQMNSLKPEDTAVYYCNARGSYPPYRSYGYWGQCTQVTVSS,low polyreactivity
3,QVQLVESGGGLVQAGGSLRLSCAASGSIFFSYVMGWYRQAPGKERELVADITYSGGSTFYADSVKGRFTISRDNAKNTVYLQMNSLKPEDTAVYYCAATWYSWGSEFDYWGQGTQVTVSS,high polyreactivity
4,QVQLVESGGGLVQAGGSLRLSCAASGSIFFTNTMGWYRKAPGKERELVAAITSGGSTNYADSVKGRFTISRDNAKNTVYLQMNSLKPEDTAVYYCAARYQPWLKYDFDSWGQGTQVTVSS,low polyreactivity
5,QVQLVESGGGLVQAGGSLRLSCAASGSIFFVYAMGWYRQAPGKERELVAAIDWDGGSTYYADSVKGRFTISRDNAKNTVYLQMNSLKPEDTAVYYCAADAWDLYSDGQEYNYWGQGTQVTVSS,high polyreactivity
6,QVQLVESGGGLVQAGGSLRLSCAASGSIFFWNAMGWYRQAPGKERELVAAISWSAGITYYADSVKGRFTISRDNAKNTVYVQMNSLKPEDTAVYYCARDQGWYTVYYDSYDYWGQGTLVTVSS,low polyreactivity
7,QVQLVESGGGLVQAGGSLRLSCAASGSIFFWNTMGWYRQAPGKVRELVAAITVSGGSTYYADSVKGRFTISRDNAKNTVYLQMNSLKPEDSAVYYCAADPYRRYGYDSYNYWGQGTQVTVSS,high polyreactivity
8,QVQLVESGGGLVQAGGSLRLSCAASGSIFFWYTMGWYRQAPGKERELVATISWSDGTTYYADSVKGRFTISRDKAKNTVYLQMNSLIPEDTAVYYCAAESYPSEVSSYVSEYDYWGQGTQVTVSS,low polyreactivity
9,QVQLVESGGGLVQAGGSLRLSCAASGSIFFYAMGWYRPAPGKERELVAAISWRGGSTYYADSVKGRFTISRDNAKNTVYLQMNSLKPEDTAVYYCAKATRRYDVYTYGYWGQGTQVTVSS,high polyreactivity
10,QVQLVESGGGLVQAGGSLRLSCAASGSIFFYAMGWYRQARGKERELVADITYTGGSKYADSVKGRFTISRDNAKNTVYLQMNSLKPEDTAVYYCAKLDGGLFDYWGQGTQVTVSS,low polyreactivity
11,QVQLVESGGGLVQAGGSLRLSCAASGSIFFYNAMAWYRQAPGKERELVAAINYNGGRTYYADSVKGRFTISRDNAKNTVYLQMNSMKQEDTAVYYCAARYGSGGDYWGQGTQVTVSS,low polyreactivity
12,QVQLVESGGGLVQAGGSLRLSCAASGSIFFYNAMGWYRQAPGKERELVAAITTRGGSTYYADSVKGRFTISRDNAKNTVYLQMNSLKPEATAVYYCARSSRGKLVYWGQGTQVTVSS,low polyreactivity
13,QVQLVESGGGLVQAGGSLRLSCAASGSIFFYYAMGWYRQAPGKDRELVAAITSSGDSTYYADSVKGRFTISRDNAKNTVYLQMNSLKPEDTAVYYCAALYIGYTGYYYWGQGTQVTVSS,low polyreactivity
14,QVQLVESGGGLVQAGGSLRLSCAASGSIFFYYAMGWYRQAPGKEREFVAGITYSGGITYYADSVKGRFTISRDNGKNTVYLQMNSLKPEDTAVYYCDYGGGVYQYGYWGQGPQVTVSS,low polyreactivity
15,QVQLVESGGGLVQAGGSLRLSCAASGSIFFYYAMGWYRQAPGKERELVADITSGGTTYYADSVKGRFTISRDNAKNTVYLQMNSQKPEDTAVYYCNAGLYPGQRPDYTNYSSYYWGQGTQVTVSS,low polyreactivity
16,QVQLVESGGGLVQAGGSLRLSCAASGSIFFYYAMGWYRQAPGKERELVASISTDGSTYADSVKGRFTISRDNAKNTVYLQMNSLKPEDTAVYYCNADTRGEYTYVSWYDYWGQGTQVTVSS,low polyreactivity
17,QVQLVESGGGLVQAGGSLRLSCAASGSIFGAIAMGWYRQAPGKERELVPAITSGGSTNYADSVKGRFTISRDNAKNTFYLQMNSLKPEDTAVYYCAARRRYAKFRYDYWGQGTQVTVSS,high polyreactivity
18,QVQLVESGGGLVQAGGSLRLSCAASGSIFGANTMGWYRQAPGKERELGAAISKRGGSTYYADSVKGRFTISRDNAKNTVYLQMNSLKPEDTAVYYCNATPRYLRQYVDPNWGYDYWGQGTQVTVSS,low polyreactivity
19,QVQLVESGGGLVQAGGSLRLSCAASGSIFGANTMGWYRQAPGKERELVAAISSGGNTYYADSVKGRFTISRDNAKNTVYLQMNSLKPEDTAVYYCAVGAYWYFGFVSYGYDYCGQGTQVTVSS,low polyreactivity
20,QVQLVESGGGLVQAGGSLRLSCAASGSIFGANTMGWYRQAPGKERELVAGITSGARTYYADSVKGRFTISRDNAKNTVYLQMNSLKPEDTAVYYCAAKYAWRRYGYWGQGTQVTVSS,high polyreactivity
21,QVQLVESGGGLVQAGGSLRLSCAASGSIFGANVMGWYRQAPGKERELVAAISFSGGSTFYADSVKGRFTISRDNAKNTVYLQMNSLKPEDTAVYYCAASYGGKGVKYYYWGQGTQVTVSS,high polyreactivity
22,QVQLVESGGGLVQAGGSLRLSCAASGSIFGAYAMGWYRQAPGKERELVAAITSGGSTNYADSVKGRFTISRDNAKNTVYLQMNSLKPEDTAVYYCAARRRYAKFRYDYWGQGTQVTVSS,high polyreactivity

row,Sequence,polyreactivity (PSR sort gate)
1,QVQLVESGGGLVQAGGSLRLSCAASGSIFGAYAMGWYRQAPGKERELVAAITWRGGSTYYADSVKGRFTISRDNAKNTVYLQMNSLNPEDTAVYYCATDTWGSYYDDDDYWGQGTEVTVSS,high polyreactivity
2,QVQLVESGGGLVQAGGSLRLSCAASGSIFGAYAMGWYRQAPGPESELVATITLRDGSTYYADSVKGRFTISRDNAKNTVYLQLNSLKPEDTAVYYCATYYSAINYGSSTTILYDYWGQGTQVSVSS,low polyreactivity
3,QVQLVESGGGLVQAGGSLRLSCAASGSIFGAYAMRWYRQAPGKERELVAAISYGGGNTYYADSVKGRFTISRDNAKNTVYLQMNSLKPEDTAFYYCNALFPRVSGSTYRYNYWGQGTQVTVSS,high polyreactivity
4,QVQLVESGGGLVQAGGSLRLSCAASGSIFGDYAMGWYRQAPGKERELVADISSGGSTTYADSVTGRFTISRDNAKNTVYLQMNSLKPEDTAVYYCAVDGGDFSSYGNWGQGTQVTVSS,low polyreactivity
5,QVQLVESGGGLVQAGGSLRLSCAASGSIFGEYAMGWYRQAPGKERELVATIRQSGDSTYYAVSVKGRFTISRDTAKNTVYLQMNSLKPEDTAVYYCAADLWLYDYYSEYDYWGPGTQVTVSS,low polyreactivity
6,QVQLVESGGGLVQAGGSLRLSCAASGSIFGEYAMGWYRQAPGKERELVATISWSAGSTYYADSVKGRFTISRDYAKNTVYLQMNSLKPEDTAVYYCAAAYDGYYLSTFDSWGQGTQVTVSS,low polyreactivity
7,QVQLVESGGGLVQAGGSLRLSCAASGSIFGFNAMGWYRQAPGKERELVAGITSGDRTNYADSVKGRFTISRDNAKNTVYLQMNSLKPEDTAVYYCAARKYVFFKMYYWGQGTQVTVSS,low polyreactivity
8,QVQLVESGGGLVQAGGSLRLSCAASGSIFGFYAMGWDRQAPGKERELVAAIRWRDGRTYYADSVKGRFTISRDNAKNTVYLQMNSLKPEDTAVYYCAAGTPWAYDYWGQGTQVTVSS,high polyreactivity
9,QVQLVESGGGLVQAGGSLRLSCAASGSIFGFYAMGWYRQAPGKERELVASISSSGDSTYYADSVKGRFTISRDNAKNTVYLQMNSLKPEDTAVYYCAAVVYDIYGYEFDYWGQGTQVTVSS,low polyreactivity
10,QVQLVESGGGLVQAGGSLRLSCAASGSIFGFYGMGWYRQAPGKERELVAAISSRGGNTYYADSVKGRFTISRDNAKNTVYLQMNSLKPEDTAVYYCNAYRYVRHYSFDYWGQGTQVTVSS,high polyreactivity
11,QVQLVESGGGLVQAGGSLRLSCAASGSIFGFYVMGWYRQAPGKERELVAAISRGGTRTYYAVSVKGRFTISRDNAKNTVYLKMNSLKPEDTAVYYCAKYEGGSCTGPRSDYWGQGTQVTVSS,high polyreactivity
12,QVQLVESGGGLVQAGGSLRLSCAASGSIFGGNAMGWYRQAPGKERELVAAITSRGGSTYYADSVKGRFTISRDNAKNTVYLQMNSLKPEDTAVYYCNALSSGVYLYDYWGQGTQVTVSS,high polyreactivity
13,QVQLVESGGGLVQAGGSLRLSCAASGSIFGGYAMGWYRQAPGKERELVAAISGSGGSTYYADSVKGRFTISRDNAKNTVYLQMNSLKPEDTAVYYCAADSNKYGYEYDYWGQGTQVTVSS,low polyreactivity
14,QVQLVESGGGLVQAGGSLRLSCAASGSIFGGYAMGWYRQAPGKERELVAAISRSGASTYYADSVKGRFTISRDNAKNTVYLQMNSLKPVDTAVYYCAAYALRGVRYPYRVDFYYWGQGTQVTVSS,high polyreactivity
15,QVQLVESGGGLVQAGGSLRLSCAASGSIFGGYAMGWYRQAPGKERELVAAISWSSSSTYYADSVKGRFTISRDNAKNTVFLQMISLKPEDTAVYYCATGIYPQTSDYVYWGQGTQVTVSS,low polyreactivity
16,QVQLVESGGGLVQAGGSLRLSCAASGSIFGGYDMGWYRQAPGTERELVAAITRDGDTNYADSVKGRFTISRDNAKNTVYLQMNSLKPEDTAVYYCAADRWLYSWFFNYDQGDYWGQGTQVTVSS,low polyreactivity
17,QVQLVESGGGLVQAGGSLRLSCAASGSIFGGYGMGWYRQAPGTERELVAAITSGSSTYYADSVKGRFTISRDNAKNTVYLQMNSLKPEDTAVYYCAARPYPHSAYEGDYWGRGTQVTVSS,low polyreactivity
18,QVQLVESGGGLVQAGGSLRLSCAASGSIFGGYTMGWYRQAPGKERELVAAISRRGGNTYYADSVKGRFTISRDNAKNTVYLQMKSLKPEDTAVYYCAVRWPSARIPVKLDYWGQGTQVTVSS,high polyreactivity
19,QVQLVESGGGLVQAGGSLRLSCAASGSIFGHYAMGWYRQATGKERELVATISRRGGSTYYADSVKVRFTISRDNAKNTVYLQMNSLKPEDTAVYYCAADSKGSLYGYWGQGTQVTVSS,high polyreactivity
20,QVQLVESGGGLVQAGGSLRLSCAASGSIFGINAMGWYRQAPGKERELVAAITWSGGSTFYADSVKGRFTISRDNAKNTVYLQMNSLKPEDTAVYYCAASYSRWYWLYTSDYWGQGTQVTVSS,high polyreactivity
21,QVQLVESGGGLVQAGGSLRLSCAASGSIFGIYAMGWYRQAPGKERELVAAISRSGGRTYYADSVKGRFTISRDNAKNTVYLQMNSLKPEDTAVYYCAARPPGGYLYDYWGQGTQVTVSS,high polyreactivity
